Laboratory results reported in the nanobody polyreactivity screen of Harvey et al. (2022).

Experiment: yeast display, Sf9 membrane polyspecificity reagent, FACS + sequencing; frameworks hold sequencing errors
Procedure, shortened: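 Polyreactivity labels are assigned by the sorting gate from which each nanobody was recovered. The gates were low and high (top ~1%), set on anti-HA fluorescence for expression and streptavidin fluorescence for reagent binding. Before sorting, galactose-induced (36–48 hours) yeast display cells were stained for 1 hour at 4 °C with 10% biotinylated, detergent-solubilized Sf9 membrane reagent.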

Row | Sequence | polyreactivity (PSR sort gate)
1 | HVQLQESGGGLMQAGGSQRLSCAASGSISYNSDMGWYRQAPGKEREFVAGIGYGTTTNYADSVKGRFTTSRDNAKNTVYLQMISMKPEDTEVYYCAAYQGNGYEFYYWGQGTQVTVRS | low polyreactivity
2 | QVQHVESGGGLVQAGCSLRLSCAASGLIFGLYAMGWFRPAPGKERELVAAISYRTDSTYADSVKGRFTISRDNAKNTVYLQMNSLKPEDNAVYYCAADLRVSVRYYYWGHGTQVTVSS | low polyreactivity
3 | QVQLVESGGGLVQAGGSLRLSCAASGNIFLYYAMGWYRPAPGKERELVADIDSSGAATYYADSVKGRFTISRDYAKNTVYLQMNSLKPEDTAVYYCAAEFHWWYAGYDYGYWGQGTQVTVSS | low polyreactivity
4 | QVQLVESGGGLVQAGGSLRLSCAASGSTFVLYAMGWDRQAPGKERELVAAISGGATTTYADSVKGRFTISRDNAKNTVYLQMNSLKPEDTAVYSCAADFSTFVVSGAAMDYWGQGTQVTVSS | low polyreactivity
5 | QVQLVESGGGLVQAGGSLRLSCAASGRTFRVYAMGWDRQAPGKERELVAAISGRGGSTYYADSVKGRFSISRDNAMNTVYLQMNSLKPEDTAVDYCAKSNPYLRLGEGNYWGQGTQVTVSS | high polyreactivity
6 | QVQLVESGGGLVQAGGSLRLSCAASGSILLRYAMGWYRQAPGKERELVAAISYDGGGTYYADSVKGRFTISRDNAKNTVYLQMNSLKPEDTAVYYCAADGYSSSGTAYDYWGQGTQVTVSS | low polyreactivity
7 | QVQLVESGGGLVQAGGSLRLSCAASGSIFNRYAMGWYRQAPGKERELVAVIRWRDGSTYYADSVKGRFTISRDNAKNTVYLQMNSLKPEDTAVYYCAAVYWGEEYEYWGQGTQVTVSS | low polyreactivity
8 | QVQLVESGGGLVQAGASLRLSCAASGLIFYFYAMGWYRQAPGKERELVATIRSSTGSTYYADSVKGRFTISRDNAKNTVYLQMNSLKPEDTAVYYCNAGIKRYEWYQFDYWGQGTQVSVSS | low polyreactivity
9 | QVQLVESGGGLVQAGGSLRLSCAAARIFVYNAMGWYRQAPGKERELVATITSSGGITYYADSVKGRFTISRDNAKNTVYLQMKSLKPEDTAVYYCNKVRRYYYRTHNVYWGQGTQVTVSS | high polyreactivity
10 | QVQLVESGGGLVQAGGSLRLSCAASGFIFSRYAMGWYRQAPGKERELVAAISWSGASTYYADSVKGRFTISRDNAKNTVYLQMNSLKPEDTAVYYCNAGYYRGEGFYTYDYWGQGTQVTVSS | high polyreactivity
11 | QVQLVESGGGLVQAGGSLRLSCAASGFIFQDYALGWYRKAPGKERELVAAITQSSGSTYYADSVKGRFTISRDNAKNTVYLQMNSLKPEDTAVYYCNTAYDFSRQASYDYWGQGTQVTVSS | low polyreactivity
12 | QVQLVESGGGLVQAGGSLRLSCAASGSIFSSYAMGWSRQAPGKERELVAAISSGDSTYYADSVKGRFTISRDNAKTTVYLQMNSLKPEDTAVYYCAAPWYAWGQGTQVTVSS | low polyreactivity
13 | QVQLVESGGCLVQAGGSLRLSCAASGRTFKQYAIGWSRQAPGKERELVAAITSGGSTYYADSVKGRFTISRDNAKNTVSLHMNSLKPEDNAVYYCNKESYFDTYRRYDSWGQCTQVTVSS | low polyreactivity
14 | QVQLVESGGGLVQAGGSLRLSCAASGLTFDWYTMGWYRQAPGKERELVATINSGGSTDYADSVKGRFTISRDNAKNTVYLQMNSLKPEDTAVYYCNAEYGYSGVGDDYWGQGTQVTVSS | low polyreactivity
15 | QVQLVESGGGLVQAGGSLRLSCAASGRTFRWYAMGWYRQAPGKERELVAAISSSGTRTYYADSVKGRFTISRDNAKNTVYLQMNSLKPEDTAVYYCAATWRVGYDYWGQGTQVTVSS | high polyreactivity
16 | QVQLVESGGGLVQAGGSLRLSCAASGSIFERYAMGWYRQSPGKEREFVATITSGGGRTYYADSVKGRFTISRENAKNTVYLQMNSLKPEDTAVYYCGAASYRRQPFNYWGQGTQVTVSS | high polyreactivity
17 | QVQLVESGGGLVQAGGSLRLSCAASGRTFLRYAMGWYRQAPGKERELVAAISSRGGSTYYADSVKGRFTISRDNAKNTVYLQMNSLKPEDTAVYYCAADTYYTRYYYWGQGTQVTVSS | high polyreactivity
18 | QVQLVESGGGLVQAGGSLRLSCAASGLTFDTYAMGWYRQAPGKERELVAAISICGRTNYADSVKGRFTISRDNAKNTVYLQMNSLKPQDTAVYYCAVGAVVPGRRRRTYYYWGQGTQVTVSS | high polyreactivity
19 | QVQLVESGGGLVQAGGSLRLSSAASGSTFAFNAMGWYRHAHGKEREFVARITWSDGSTYYADSVKGRFTISRDNAKNTVYLQMNCLKPEDTAVYYCARDPTEQAIARWTYDYWGQGTQVTVSS | low polyreactivity
20 | QVQLVESGGGLVQAGGSLRLSCATSGRTFRFNAMGWYRQAPGKEREFVAAITSGGGTYYADSVKGRFTISRDNAKNTLDLQMNSLKPEDTAVYYCAAPRQYYLMDYWGQGTQVTVSS | low polyreactivity
21 | QVQIVESGGGLVQAGGSLRISCAPSGLIFAYYAMGRYRQAPGKERELVAAISSVGSTYYADSVKGRFTISRDNAKNTVYLQMNSLKPEDTAVYYCAAALYPYYWPEYNYWGQGTQVNVSS | high polyreactivity
22 | QVQLVESGGGLVQAGGSLRLSCAASGRTFSIYAMGWYRQAPGKERELVASITNSDGSTYYADSVKGRFTISRDNAKNTVYLQMNSLKPEDTAVYYWNVDSGKYWSLWTYVQYDDYWGQGTQVTVSS | low polyreactivity

Row | Sequence | polyreactivity (PSR sort gate)
23 | QVQLVESGGGLVQAGGSLRLSCAASGRISSSYAMGWYRQAPGKEREFVAGITSIGGRTYYADSVKGRFTISRDNAKNTVYLQMNSLKPEDTAVYYCATTSSWRYGYWGQGTQVTVSS | high polyreactivity
24 | QVQLVESGGGLDQAGGSLRLSCAASGYTYGYYAMGWYRQAPGKERELVATISYSGGTTYYADSVRGRFTISRDNAKNTVYLQMNSLKPEDTAVYYCNARGYKRLYGYWVQGTQVTVSS | high polyreactivity
25 | QVQLVESGGGLVQAGGSLRLSCASSGITFAKNAMGRYRQAPGKERELVAVITNTNYADSVKGRFTISRDNAKNTVYLQMNSLKPEDTAVYYCAVDGYGWYFARSWLRYYYWGQGTQVTVSS | low polyreactivity
26 | QVQLVESGGGLVQAGGSLRLSCAASGGTFHYNAMGWSRQAPGKERELVAAITESGGRTYYADSVKGRFTISRDNAKNTVYLQMNSLKPEDTAVYYCNADQDYDAAYRSDYWGQGTQVTVSS | low polyreactivity
27 | QVQLVESGGGLVQAGGSLRLSCAASGYIFSLYAMGWYRQAPGKERELLADITTSAGSTYYADSVKGRFTISRDNAKNTVYLQMISLKPEDTAVYYCAAAVYGHSYYDYDYWGLGTQVTVSS | low polyreactivity
28 | QVQLVESGGGLVQAGGSLRLSCAASGRIFYRYAMGWYRQAPGKERELVAAISTSGARTYYADSVKGRFTISRDNAKIYVYLQMNSLKPVDTAVYYCAATATVSKFGYWGQGTQVTVSS | low polyreactivity
29 | QVQLVESGGGLVQAGGSLRLSLAASGSIFRAYVMGWYRPAPGKERELVAAITRSGARTYYADSLKGRFTLSRDNAKNTVYLQMNSLKPEDTAVYYCAAETSGSQSKLYYYWGQGTQVTVSS | high polyreactivity
30 | QVQLVESGGGLVQAGGSLRLSCAASGRIFYRYAMGWYRQAPGKERELVAAISSGGSTYYADSVKGRFTISRDNAKNTVYLQMNSLKPEDTAVYYCAATWGRGTYYLYYYWGQGTQVTVSS | high polyreactivity
31 | QVQLVESGGGLVQARGSLRLSCAASGSIFINNTRGWYRQAPGIEREWVAAISITGGSTYYADSVKGRFTISRDNAKNSVYLQMNSLKPEDTAVDYCAADPLQLYDYNYWGQGTQVTVSS | low polyreactivity
32 | QVQLVESGGGLVQAGGSLRLICEASGFIFDDNAIGSYRQAPGKERELVAAITSGGGSTYYADSVKGRCTISRDYAKNTVYLHMNSLKPEDTAVYYCNAVPSQHDEFDYWGQGTQVTVSS | low polyreactivity
33 | QVQLVESGGGLVQAGGSLRLSCAASGLTCASYVMGWYRQAPGKERELVAAISSSGDSTYYADSVKGRFTISRDNAKNTFYLEMNSLKPEDTAVYYCASNDYVWGQGTQVTVSS | low polyreactivity
34 | QVQLVESGGGLVQAGGSLRLSCAASGRTFGTYAIGWYRQAPGKERELVAAITGSGDRTYYADSVKGRFTISRDNAKNTVYLQMNSLKPEDTAVYYCAAYSDRSYGFWGQGTQVTVSS | low polyreactivity
35 | QVQLVESGGGLVQAGGSLRLSCAASGFIFQSYAMGWYRQAPGKERELVAAITRSGGRTYYADSVKGRFTISRDNAKNTVYLQMNSLKPEDTAVYYCAAETSYPGIYRFYYWGQGTQVTVSS | high polyreactivity
36 | QVQLVESGGGLVQAGGSLRLSCAASGYTIRGYVMGWYRQAPGKERELVAAISASGGRTYYADSVKGRFTISRDYATNTVYLLMNSLKPEDTAVYYCAADSSRTPLEFDYWGQGTQVTVSS | high polyreactivity
37 | QVQLVESGGGLVEAGGSLRLSGAASGSIFRYYSMGWYRQAPGKERELVAAITYSGGTTYYADSVKGRFTISRDNAKNTVYLQMNSLKPEDTAVYYCAATFQANYFSGYYTVYLSDYRGQGTQVTVSS | low polyreactivity
38 | QVQLVESGGGLVQAGGSLRLSCAASGLTLYRNAMGWYRPAPGKVRELVAAITKSGARTYYADSVKGRFTISRDNAKNTVYLQMNSLKPEDTAVYYCAADALNTYNYWGQGTQVTVSS | high polyreactivity
39 | QLQLVESGGGLVQAGGSLRLSCAASGSTFVVYARGWYRQAPGKERELVAAITRDDGRTYYADSVKGRFTISRDNAKNTVYLQMNSLKPEDTAVYYCAAGYSFGYGYWGQGTQVTVSS | low polyreactivity
40 | QVQLVESGGGLVQAGGSLRLSCAASGNIFVAYAMGWYRQAPGKERELVAAITSGGRTYADSVKGRFTISSDNAKNTVYLQMNSLKPEDTAVYYCNADPYYVYLGYYDRYYSGYGYWGLGTQVTVSS | low polyreactivity
41 | QVQLVESGGGLVQAGGSLRLSCAASGFIIYFYAMGWYRQAPGKERELVAAINYPGDSTYYADSVKGRFTISRDNAKNTVYLQMNSLKPEDTAVYYCNKVLYNKWPYVTLSAFPTVGYWGQGTQVTVSS | high polyreactivity
42 | QVQLVESGGGLVQAGGSLRLSCAASGITLEVYAMGWYRQAPGKERELVAAITDSGGRTYYADSVKGRFTISRDNAKNTVYLQMNSLKPEDTAVYYCAADDTRVYGAGEYWGQGTQVTVSS | low polyreactivity
43 | QVQLVESGGGLVQAGGSLRLSCSASGTILYFYAMGWYRQAQGKERELVAAIDSGGSTDYADSVKGRFTISRYNAKNTVYLQMNSLKPEDTAVYYCAAYPWERYTWWYVYRGHVYWGQGTQVTVSS | low polyreactivity
